Results on one substance are retold here after doi:10.1101/2021.09.09.459598.

The target of the experiment is soybean QUAC1 from Glycine max (GmQUAC1) (soybean (Glycine max)). Description: cryo-EM structure.

Substance “soybean QUAC1 from Glycine max (GmQUAC1) (natural protein)” gave a stoichiometry N of 2.

A word on the stoichiometry N: it is a count of units in the complex or per binding partner.
